In US20170320927A1 (Novo Nordisk, published 2017):
Starred links: 1 amine or outer side, 2 acyl side, 3 side chain; linkers in the order of their positions; H or OH if unused. Non-standard residues stand in square brackets, D forms with d. Groups on a side chain read outwards from the residue. No end group written: not given here. *: point of attachment. Amino‑C3‑Gly(Bis) = branched linker 2-[bis(3-aminopropyl)amino]acetyl, two legs on the propylamino groups, O=C(CN(CCCN[*:1])CCCN[*:3])[*:2]; C20 diacid = O=C(O)CCCCCCCCCCCCCCCCCCC(=O)*; C18 diacid = O=C(O)CCCCCCCCCCCCCCCCC(=O)*; γGlu = O=C(O)[C@H](CCC(=O)[*:2])N[*:1]; Trx = NC[C@H]1CC[C@H](C(=O)O)CC1; AEEA = NCCOCCOCC(=O)O; Aib = CC(C)(N)C(=O)O

B1: N{Alpha}([Aib8,Glu22,Arg26,Arg34,Pro37]-GLP-1-(7-37)-peptidyl)-N{Epsilon}[2-[bis[3-[[2-[2-[2-[[2-[2-[2-[[2-[2-[2-[[2-[2-[2-[[2-[2-[2-[[2-[2-[2-[[(4S)-4-carboxy- … (peptide)
peptide: H[Aib]EGTFTSDVSSYLEEQAAREFIAWLVRGRPK([Amino‑C3‑Gly(Bis)-code 2×AEEA-AEEA-AEEA-AEEA-AEEA-AEEA-γGlu-Trx-C20 diacid])
notes: analogue (8Aib, 22E, 26R, 34R, 37P, 38K) GLP-1(7-37)
B2: N{Epsilon-37}-[2-[3-[[2-[2-[2-[[2-[2-[2-[[2-[2-[2-[[2-[2-[2-[[(2S)-2- … (peptide)
peptide: XXEGTFTSDVSSYLEEQAAREFIAWLVRGRK
modifications: not fully specified; Imp (imidazopropionic acid, deamino-histidine) at 7; Aib at 8; Lys37 epsilon-acylated with the branched side chain of the name (GLP-1(7-37) numbering, first residue = 7)

Experiments:
[1] = target: T1, human GLP-1 receptor (human, UniProt P43220 24-463); test: cell-based or functional assay
[2] = target: T1, human GLP-1 receptor; test: competitive SPA, displacement of [125I]-GLP-1-(7-36)NH2 from BHK membranes with human GLP-1 receptor, high HSA (2.0%)
Description: (§1) 1. For the receptor binding assay in the presence of low HSA (0.005%) 50 μl of the assay buffer was added to each well of an assay plate. Assay continued with step 3. 2. For the receptor binding assay in the presence of high HSA (2%) 50 μl of the 8% albumin stock was added to each well of an assay plate. Assay continued with step 3. 3. […] 4. Cell membrane aliquots were thawed and diluted to their working concentration. Fifty μl were added to each well in the assay plate. 5. WGA SPA beads were suspended in assay buffer at 20 mg/ml. The suspension was diluted to 10 mg/ml in assay buffer just prior to addition to the assay plate. Fifty μl were added to each well in the assay plate. 6. […] A 25 μl aliquot was reserved for measuring total counts/well. 7. The assay plate was incubated for 2 h at 30° C. 8. The assay plate was centrifuged for 10 min. 9. The assay plate was read in a Packard TopCount NXT instrument.
(§2) The data from the TopCount instrument were transferred to GraphPad Prism software. Individual replicates were analysed using non-linear regression.

[3] = target: T1, human GLP-1 receptor; test: competitive SPA, displacement of [125I]-GLP-1-(7-36)NH2 from BHK membranes with human GLP-1 receptor, low HSA (max. 0.001%)
Description: as §1, with “For the receptor binding assay in the presence of low HSA (0.005%) 50 μl of the assay buffer was added to each well of an assay plate.” left out
as §2

Binder	EC50 (pM), in vitro potency, CRE luciferase reporter gene assay in BHK cells expressing the human GLP-1 receptor [1] [pM]	IC50 [2] [nM]	IC50 [3] [nM]
B1	15	30	0.31
H[Aib]EGTFTSDVSSYLEEQAAREFIAWLVRK([AEEA-AEEA-AEEA-AEEA-AEEA-AEEA-Amino‑C3‑Gly(Bis)-code 2×γGlu-Trx-C20 diacid])RG (X = Aib) [N{Epsilon-35}-[2-[2-[2-[[2-[2-[2-[[2-[2-[2-[[2-[2-[2-[[2-[2-[2-[[2- …]	9.5	7.2	0.33
H[Aib]EGTFTSDVSSYLEEQAAREFIAWLVRGK([AEEA-AEEA-AEEA-AEEA-AEEA-AEEA-Amino‑C3‑Gly(Bis)-code 2×γGlu-Trx-C20 diacid])G [N{Epsilon-36}-[2-[2-[2-[[2-[2-[2-[[2-[2-[2-[[2-[2-[2-[[2-[2-[2-[[2- …]			1.2
H[Aib]EGTFTSDVSSYLEEQAAREFIEWLVRGK([AEEA-AEEA-AEEA-AEEA-Amino‑C3‑Gly(Bis)-code 2×γGlu-C18 diacid])G	7.1	110	1.1
H[Aib]EGTFTSDVSSYLEEQAAREFIAWLVRGK([Amino‑C3‑Gly(Bis)-code 2×AEEA-AEEA-AEEA-AEEA-γGlu-C18 diacid])G			0.68
B2	12	45	0.13
